PMC4125116

What was measured:
[1] = molecular target: BldM fused to the T18 or the T25 fragment of adenylate cyclase (BACTH) (Streptomyces venezuelae); assay: two-hybrid; bacterial two-hybrid (BACTH), T18 (pUT18) and T25 (pKT25) fusions in E. coli BTH101; transformants grown at 30°C for two days; β-galactosidase assays of four independent clones
[2] = molecular target: WhiI fused to the T18 or the T25 fragment of adenylate cyclase (BACTH) (Streptomyces venezuelae); assay: as above

β-galactosidase activity (Miller units) [1] [Miller units]	β-galactosidase activity (Miller units) [2] [Miller units]	Substance
3000		WhiI fused to the T18 or the T25 fragment of adenylate cyclase (BACTH) (natural protein)
750	3000	BldM fused to the T18 or the T25 fragment of adenylate cyclase (BACTH) (natural protein)
